# Literature values as cited in PMC4871753.
# Target: RXFP1 (Homo sapiens) (UniProt Q9HBX9)
# Sequence of UniProt Q9HBX9 (Q9HBX9 whole entry): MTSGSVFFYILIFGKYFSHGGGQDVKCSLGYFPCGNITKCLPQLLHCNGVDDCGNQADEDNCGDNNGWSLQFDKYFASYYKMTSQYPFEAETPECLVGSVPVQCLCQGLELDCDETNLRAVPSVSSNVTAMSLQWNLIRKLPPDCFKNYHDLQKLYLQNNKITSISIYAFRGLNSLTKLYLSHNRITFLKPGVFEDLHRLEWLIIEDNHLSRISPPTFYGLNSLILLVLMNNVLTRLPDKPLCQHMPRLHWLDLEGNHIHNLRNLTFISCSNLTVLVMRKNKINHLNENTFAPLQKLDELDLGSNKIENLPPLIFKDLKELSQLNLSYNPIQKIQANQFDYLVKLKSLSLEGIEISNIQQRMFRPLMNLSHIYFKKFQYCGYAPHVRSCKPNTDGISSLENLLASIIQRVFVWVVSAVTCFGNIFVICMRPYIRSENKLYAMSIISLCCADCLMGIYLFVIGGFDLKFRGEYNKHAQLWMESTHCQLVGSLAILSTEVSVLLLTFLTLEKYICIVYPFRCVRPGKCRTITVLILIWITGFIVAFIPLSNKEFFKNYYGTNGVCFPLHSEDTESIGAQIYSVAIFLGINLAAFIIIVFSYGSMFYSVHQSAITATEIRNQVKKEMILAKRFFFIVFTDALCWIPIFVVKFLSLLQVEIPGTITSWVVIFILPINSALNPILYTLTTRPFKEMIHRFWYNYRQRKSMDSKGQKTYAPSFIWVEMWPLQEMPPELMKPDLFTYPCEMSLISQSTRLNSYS
substance,measurement,value
NLuc-conjugated relaxin (from UniProt P04090),Kd,1.11 nM
